Target: the molecule itself
Assay: cross-linking; 1 mg/mL of each protein with increasing BS3 amine ester crosslinker (0.8-8 mM), 30 min at room temperature; denaturing SDS-PAGE, Coomassie blue

B1: Cytoplasmic Abundant Heat Soluble protein D (CAHS D), wild type (natural protein, Hypsibius exemplaris, UniProt P0CU50 1-227, looked up)
chain: MSGRNVESHMERNEKVVVNNSGHADVKKQQQQVEHTEFTHTEVKAPLIHPAPPIISTGAAGLAEEIVGQGFTASAARISGGTAEIHLQPSAAMTEEARRDQERYRQEQESIAKQQEREMEKKTEAYRKTAEAEAEKIRKELEKQHARDVEFRKDLIESTIDRQKREVDLEAKMAKRELDREGQLAKEALERSRLATNVEVNFDSAAGHTVSGGTTVSTSDKMEIKRN
notes: CAHS D of the tardigrade Hypsibius exemplaris, 227 residues, UniProt P0CU50; Cloned into pET28b; also called CAHS8_HYPEX; CAHS 94063; source: E. coli BL21 (DE3), purified (heat lysis, cation exchange in 8 M urea, dialysis, lyophilised)
Question: Does B1 bind?
Answer: binds

Reference: paper PMC10949331, “Labile assembly of a tardigrade protein induces biostasis” (Protein Science : A Publication of the Protein Society, 2024)
